Measured values taken from patent EP4640708A1 (Chimagen Biosciences, Ltd, dated 2025).

Experiments:
[1] = target: T1, human GPRC5D (hGPRC5D) on cells (human, UniProt Q9NZD1 1-345); experiment: flow cytometry, MM.1R cells naturally expressing GPRC5D
T1 construct: whole, on cells; also called HEK293-hGPRC5D; CHOS-hGPRC5D

[2] = target: T1, human GPRC5D (hGPRC5D) on cells; experiment: flow cytometry, NCI-H929 cells naturally expressing GPRC5D
[3] = target: T1, human GPRC5D (hGPRC5D) on cells; experiment: flow cytometry, RPMI-8226 cells naturally expressing GPRC5D

T1 sequence (Q9NZD1 whole entry): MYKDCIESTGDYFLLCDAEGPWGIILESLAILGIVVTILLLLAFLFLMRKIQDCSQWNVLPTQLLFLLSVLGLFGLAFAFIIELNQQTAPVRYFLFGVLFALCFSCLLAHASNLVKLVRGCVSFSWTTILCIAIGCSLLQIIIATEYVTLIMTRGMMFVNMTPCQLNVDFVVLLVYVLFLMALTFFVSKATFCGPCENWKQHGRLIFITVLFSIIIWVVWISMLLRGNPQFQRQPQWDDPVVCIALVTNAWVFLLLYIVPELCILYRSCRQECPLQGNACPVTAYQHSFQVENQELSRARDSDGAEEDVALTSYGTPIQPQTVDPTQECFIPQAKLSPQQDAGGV

B1: GC5B596 (antibody, V domains shown)
VH: QVQLVQSGAEVKKPGASVKVSCKASGYSFTGYTMNWVRQAPGQGLEWMGLINPYNSDTNYAQKLQGRVTMTTDTSTSTAYMELRSLRSDDTAVYYCARVALRVALDYWGQGTLVTVSS
VL: DIQMTQSPSSLSASVGDRVTITCKASQNVATHVGWYQQKPGKAPKRLIYSASYRYSGVPSRFSGSGSGTEFTLTISNLQPEDFATYYCQQYNRYPYTFGQGTKLEIKR
Work on B1 yielded an EC50 [1] of 7.2 µg/mL, an EC50 [2] of 9.52 µg/mL and an EC50 [3] of 14.3 µg/mL.
